Test results: the Human Domainome abundance scans (Beltran et al. 2025)
± gives the uncertainty stated by the source.

B1: POU domain, class 3, transcription factor 1, residues 247 to 324; numbered along this chain, Q03052 (parent)
chain: EDAPSSDDLEQFAKQFKQRRIKLGFTQADVGLALGTLYGNVFSQTTICRFEALQLSFKNMCKLKPLLNKWLEETDSSS

Variants of: B1
Assay: abundance fitness (aPCA) (normalised: wild type 0, dead -1); higher = more abundant; growth selection in yeast, the domain comes from the species named
Conditions: Homo sapiens
Work on EDLPSSDDLEQFAKQFKQRRIKLGFTQADVGLALGTLYGNVFSQTTICRFEALQLSFKNMCKLKPLLNKWLEETDSSS yielded an abundance fitness of 0.362 ± 0.059.
With GDAPSSDDLEQFAKQFKQRRIKLGFTQADVGLALGTLYGNVFSQTTICRFEALQLSFKNMCKLKPLLNKWLEETDSSS the abundance fitness was -0.031 ± 0.06.
With QDAPSSDDLEQFAKQFKQRRIKLGFTQADVGLALGTLYGNVFSQTTICRFEALQLSFKNMCKLKPLLNKWLEETDSSS the abundance fitness was 0.209 ± 0.14.
Variant RDAPSSDDLEQFAKQFKQRRIKLGFTQADVGLALGTLYGNVFSQTTICRFEALQLSFKNMCKLKPLLNKWLEETDSSS has an abundance fitness of 0.102 ± 0.099.
LDAPSSDDLEQFAKQFKQRRIKLGFTQADVGLALGTLYGNVFSQTTICRFEALQLSFKNMCKLKPLLNKWLEETDSSS gave an abundance fitness of 0.135 ± 0.086.
Variant YDAPSSDDLEQFAKQFKQRRIKLGFTQADVGLALGTLYGNVFSQTTICRFEALQLSFKNMCKLKPLLNKWLEETDSSS has an abundance fitness of 0.05 ± 0.21.
For DDAPSSDDLEQFAKQFKQRRIKLGFTQADVGLALGTLYGNVFSQTTICRFEALQLSFKNMCKLKPLLNKWLEETDSSS, the abundance fitness was 0.359 ± 0.11.
Work on NDAPSSDDLEQFAKQFKQRRIKLGFTQADVGLALGTLYGNVFSQTTICRFEALQLSFKNMCKLKPLLNKWLEETDSSS yielded an abundance fitness of -0.013 ± 0.16.
ADAPSSDDLEQFAKQFKQRRIKLGFTQADVGLALGTLYGNVFSQTTICRFEALQLSFKNMCKLKPLLNKWLEETDSSS showed an abundance fitness of -0.211 ± 0.11.
In the case of CDAPSSDDLEQFAKQFKQRRIKLGFTQADVGLALGTLYGNVFSQTTICRFEALQLSFKNMCKLKPLLNKWLEETDSSS, the abundance fitness is reported as 0.281 ± 0.41.
In the case of MDAPSSDDLEQFAKQFKQRRIKLGFTQADVGLALGTLYGNVFSQTTICRFEALQLSFKNMCKLKPLLNKWLEETDSSS, the abundance fitness is reported as 0.319 ± 0.1.
KDAPSSDDLEQFAKQFKQRRIKLGFTQADVGLALGTLYGNVFSQTTICRFEALQLSFKNMCKLKPLLNKWLEETDSSS showed an abundance fitness of 0.066 ± 0.16.
For TDAPSSDDLEQFAKQFKQRRIKLGFTQADVGLALGTLYGNVFSQTTICRFEALQLSFKNMCKLKPLLNKWLEETDSSS, the abundance fitness was 0.088 ± 0.14.
With FDAPSSDDLEQFAKQFKQRRIKLGFTQADVGLALGTLYGNVFSQTTICRFEALQLSFKNMCKLKPLLNKWLEETDSSS the abundance fitness was 0.118 ± 0.3.
SDAPSSDDLEQFAKQFKQRRIKLGFTQADVGLALGTLYGNVFSQTTICRFEALQLSFKNMCKLKPLLNKWLEETDSSS showed an abundance fitness of 0.126 ± 0.1.
With VDAPSSDDLEQFAKQFKQRRIKLGFTQADVGLALGTLYGNVFSQTTICRFEALQLSFKNMCKLKPLLNKWLEETDSSS the abundance fitness was 0.103 ± 0.067.
IDAPSSDDLEQFAKQFKQRRIKLGFTQADVGLALGTLYGNVFSQTTICRFEALQLSFKNMCKLKPLLNKWLEETDSSS showed an abundance fitness of 0.3 ± 0.14.
For WDAPSSDDLEQFAKQFKQRRIKLGFTQADVGLALGTLYGNVFSQTTICRFEALQLSFKNMCKLKPLLNKWLEETDSSS, the abundance fitness was 0.144 ± 0.12.
ERAPSSDDLEQFAKQFKQRRIKLGFTQADVGLALGTLYGNVFSQTTICRFEALQLSFKNMCKLKPLLNKWLEETDSSS showed an abundance fitness of 0.312 ± 0.048.
With EPAPSSDDLEQFAKQFKQRRIKLGFTQADVGLALGTLYGNVFSQTTICRFEALQLSFKNMCKLKPLLNKWLEETDSSS the abundance fitness was 0.252 ± 0.11.
For EHAPSSDDLEQFAKQFKQRRIKLGFTQADVGLALGTLYGNVFSQTTICRFEALQLSFKNMCKLKPLLNKWLEETDSSS, the abundance fitness was 0.29 ± 0.11.
Work on EKAPSSDDLEQFAKQFKQRRIKLGFTQADVGLALGTLYGNVFSQTTICRFEALQLSFKNMCKLKPLLNKWLEETDSSS yielded an abundance fitness of 0.452 ± 0.087.
Variant EYAPSSDDLEQFAKQFKQRRIKLGFTQADVGLALGTLYGNVFSQTTICRFEALQLSFKNMCKLKPLLNKWLEETDSSS has an abundance fitness of 0.197 ± 0.13.
In the case of ESAPSSDDLEQFAKQFKQRRIKLGFTQADVGLALGTLYGNVFSQTTICRFEALQLSFKNMCKLKPLLNKWLEETDSSS, the abundance fitness is reported as 0.453 ± 0.08.
In the case of ENAPSSDDLEQFAKQFKQRRIKLGFTQADVGLALGTLYGNVFSQTTICRFEALQLSFKNMCKLKPLLNKWLEETDSSS, the abundance fitness is reported as 0.256 ± 0.091.
Variant EMAPSSDDLEQFAKQFKQRRIKLGFTQADVGLALGTLYGNVFSQTTICRFEALQLSFKNMCKLKPLLNKWLEETDSSS has an abundance fitness of 0.342 ± 0.082.
Work on EFAPSSDDLEQFAKQFKQRRIKLGFTQADVGLALGTLYGNVFSQTTICRFEALQLSFKNMCKLKPLLNKWLEETDSSS yielded an abundance fitness of 0.166 ± 0.1.
With EEAPSSDDLEQFAKQFKQRRIKLGFTQADVGLALGTLYGNVFSQTTICRFEALQLSFKNMCKLKPLLNKWLEETDSSS the abundance fitness was 0.41 ± 0.068.
Work on EQAPSSDDLEQFAKQFKQRRIKLGFTQADVGLALGTLYGNVFSQTTICRFEALQLSFKNMCKLKPLLNKWLEETDSSS yielded an abundance fitness of 0.267 ± 0.15.
With EGAPSSDDLEQFAKQFKQRRIKLGFTQADVGLALGTLYGNVFSQTTICRFEALQLSFKNMCKLKPLLNKWLEETDSSS the abundance fitness was 0.411 ± 0.05.
EWAPSSDDLEQFAKQFKQRRIKLGFTQADVGLALGTLYGNVFSQTTICRFEALQLSFKNMCKLKPLLNKWLEETDSSS gave an abundance fitness of 0.001 ± 0.08.
Variant EAAPSSDDLEQFAKQFKQRRIKLGFTQADVGLALGTLYGNVFSQTTICRFEALQLSFKNMCKLKPLLNKWLEETDSSS has an abundance fitness of 0.217 ± 0.066.
With EVAPSSDDLEQFAKQFKQRRIKLGFTQADVGLALGTLYGNVFSQTTICRFEALQLSFKNMCKLKPLLNKWLEETDSSS the abundance fitness was 0.171 ± 0.059.
With ELAPSSDDLEQFAKQFKQRRIKLGFTQADVGLALGTLYGNVFSQTTICRFEALQLSFKNMCKLKPLLNKWLEETDSSS the abundance fitness was 0.151 ± 0.066.
EIAPSSDDLEQFAKQFKQRRIKLGFTQADVGLALGTLYGNVFSQTTICRFEALQLSFKNMCKLKPLLNKWLEETDSSS showed an abundance fitness of 0.413 ± 0.15.
With ECAPSSDDLEQFAKQFKQRRIKLGFTQADVGLALGTLYGNVFSQTTICRFEALQLSFKNMCKLKPLLNKWLEETDSSS the abundance fitness was 0.081 ± 0.13.
In the case of ETAPSSDDLEQFAKQFKQRRIKLGFTQADVGLALGTLYGNVFSQTTICRFEALQLSFKNMCKLKPLLNKWLEETDSSS, the abundance fitness is reported as 0.459 ± 0.086.
